Measured values taken from EP1169642B1.

Biological target: purified human complement Factor H (human) (UniProt P08603)
Assay: steady state fluorescence titration of purified human Factor H

Sequence of purified human complement Factor H (human) (P08603 19-1231 limits assumed): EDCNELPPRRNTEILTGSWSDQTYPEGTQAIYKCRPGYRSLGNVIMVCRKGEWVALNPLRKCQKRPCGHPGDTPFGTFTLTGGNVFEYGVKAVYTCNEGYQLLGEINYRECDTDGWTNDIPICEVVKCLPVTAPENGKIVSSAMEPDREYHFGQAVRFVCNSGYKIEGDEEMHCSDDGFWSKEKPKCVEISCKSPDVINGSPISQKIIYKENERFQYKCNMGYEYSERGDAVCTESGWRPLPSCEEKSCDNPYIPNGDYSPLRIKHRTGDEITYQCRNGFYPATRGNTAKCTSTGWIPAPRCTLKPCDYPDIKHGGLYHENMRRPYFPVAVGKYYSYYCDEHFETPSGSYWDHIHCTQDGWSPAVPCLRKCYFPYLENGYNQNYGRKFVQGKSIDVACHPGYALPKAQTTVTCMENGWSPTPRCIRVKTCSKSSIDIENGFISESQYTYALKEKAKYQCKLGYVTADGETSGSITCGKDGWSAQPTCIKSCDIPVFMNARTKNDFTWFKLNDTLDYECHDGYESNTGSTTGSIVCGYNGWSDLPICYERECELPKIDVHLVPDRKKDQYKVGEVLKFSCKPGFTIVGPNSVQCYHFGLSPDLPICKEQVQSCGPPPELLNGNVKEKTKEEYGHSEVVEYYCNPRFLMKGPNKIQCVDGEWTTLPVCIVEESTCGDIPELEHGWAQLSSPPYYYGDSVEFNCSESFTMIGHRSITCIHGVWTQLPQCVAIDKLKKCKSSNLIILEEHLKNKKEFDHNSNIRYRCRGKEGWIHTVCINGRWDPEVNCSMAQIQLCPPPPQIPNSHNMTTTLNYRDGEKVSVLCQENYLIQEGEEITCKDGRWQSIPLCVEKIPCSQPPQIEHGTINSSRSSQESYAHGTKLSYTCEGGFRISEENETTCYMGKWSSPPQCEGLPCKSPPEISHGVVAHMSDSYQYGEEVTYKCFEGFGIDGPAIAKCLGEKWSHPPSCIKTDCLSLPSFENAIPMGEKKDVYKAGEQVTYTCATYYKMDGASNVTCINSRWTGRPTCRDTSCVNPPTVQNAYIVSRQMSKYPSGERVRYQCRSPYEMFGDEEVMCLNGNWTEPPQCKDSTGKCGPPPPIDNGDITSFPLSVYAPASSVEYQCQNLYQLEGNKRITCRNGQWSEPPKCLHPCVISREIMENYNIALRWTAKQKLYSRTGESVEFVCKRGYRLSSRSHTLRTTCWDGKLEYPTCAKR

Substance: recombinant osteopontin (rOPN) (from UniProt P10451 17-314) (ligand)
- stoichiometry (OPN:Factor H): 1 molar ratio
